{
  "source": "paper PMC2749211",
  "target": "SMU.440, hypothetical protein from Streptococcus mutans (Streptococcus mutans)",
  "test": "SEC; gel filtration on HiLoad Superdex 75, 20 mM Tris-HCl pH 7.5, 150 mM NaCl",
  "data": [
    {"substance": "SMU.440, hypothetical protein from Streptococcus mutans (natural protein)", "values": [
      {"measurement": "stoichiometry N", "value": 2}
    ]}
  ]
}
